The values that follow come from PMC6711530, “Identification of zinc and Zur-regulated genes in Corynebacterium diphtheriae”.

The target in data set [1] is T1, Zur (zinc uptake regulator) (Corynebacterium diphtheriae (strain of …, UniProt Q6NG23 1-142)).
T1 sequence: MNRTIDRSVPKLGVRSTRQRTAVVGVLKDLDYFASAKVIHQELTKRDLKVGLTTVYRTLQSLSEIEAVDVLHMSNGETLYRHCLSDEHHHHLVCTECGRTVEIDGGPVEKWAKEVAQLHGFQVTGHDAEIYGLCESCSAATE
The data set can be described thus: EMSA; 5 uM ZnCl2; 100 nM Zur, 1 nM oligo duplex; 10 mM Tris pH 7.5, 55 mM KCl, 1 mM DTT, 10% glycerol, 0.05% NP-40, 100 ug/ml BSA, 0.03 ug/ml salmon sperm DNA, 5 uM ZnCl2 (or Zn/EDTA titration 0.25-250 uM); temperature not stated. As to conditions: protein: recombinant; tags: His-tag (pET30a); chain copies: 2; label: 5' biotin on strand 1; blunt. On the technique in general: Mobility shift assays separate free from complexed probe on a gel.

Data set [2] deals with T1, Zur (zinc uptake regulator). The data set can be described thus: EMSA; 250 uM EDTA; 100 nM Zur, 1 nM oligo duplex; 10 mM Tris pH 7.5, 55 mM KCl, 1 mM DTT, 10% glycerol, 0.05% NP-40, 100 ug/ml BSA, 0.03 ug/ml salmon sperm DNA, 5 uM ZnCl2 (or Zn/EDTA titration 0.25-250 uM); temperature not stated. As to conditions: protein: recombinant; tags: His-tag (pET30a); chain copies: 2; label: 5' biotin on strand 1; blunt.

B1: iutA (dip0169) DtxR binding site (dsDNA)
DNA 1: CCCTGTTTTAGCTTAGCCCTAGCTAATTTGGGG
DNA 2: CCCCAAATTAGCTAGGGCTAAGCTAAAACAGGG
Consider B1, for which the binding result in data set [1] is listed as “no binding”.

B2: cztA (dip1101) site 1 (dsDNA)
DNA 1: GGGTATCAGTACACATTATTTTCAATAAAGCCC
DNA 2: GGGCTTTATTGAAAATAATGTGTACTGATACCC
On to B2, for which the binding result in data set [1] is given as “binds”.

B3: cztA (dip1101) site 2 (dsDNA)
DNA 1: GGGCATAAATGAAAATATGGGCTATGCTGCCCC
DNA 2: GGGGCAGCATAGCCCATATTTTCATTTATGCCC
In the case of B3, in data set [1], the binding result is “binds”.

B4: cmrA (dip2325) site (dsDNA)
DNA 1: CCCAATTATCGGTAATTATTTTCATTAAAAGGG
DNA 2: CCCTTTTAATGAAAATAATTACCGATAATTGGG
As to B4, the binding result in data set [2] is given as “binds”.

B5: adhA (dip2114) site (dsDNA)
DNA 1: CCCTTCTAATGGTACCTATTTTCAATAGGTGGG
DNA 2: CCCACCTATTGAAAATAGGTACCATTAGAAGGG
B5: the binding result in data set [2] is reported as “binds”.
